Target: FGF-21 receptor
Experiment: cell-based or functional assay

recombinant human FGF-21 (from UniProt Q9NSA1 29-209) (ligand)
Glucose uptake CPM, 3T3-L1 fat cells, protein at 0 nM (baseline): 1880 CPM | Glucose uptake CPM, 3T3-L1 fat cells, protein at 0.03 nM: 1800 CPM | Glucose uptake CPM, 3T3-L1 fat cells, protein at 0.15 nM: 2110 CPM | Glucose uptake CPM, 3T3-L1 fat cells, protein at 0.8 nM: 2200 CPM | Glucose uptake CPM, 3T3-L1 fat cells, protein at 4 nM: 3300 CPM | Glucose uptake CPM, 3T3-L1 fat cells, protein at 20 nM: 5130 CPM | Glucose uptake CPM, 3T3-L1 fat cells, protein at 100 nM: 5320 CPM
